Patent US20090169562A1 (CRUCELL HOLLAND B V, published 2009)

Key:
[1] = target: T1, bovine serum albumin (BSA) (bovine, UniProt P02769 25-607); assay: phage ELISA, 1% BSA coated, anti-M13-HRP detection
T1 construct: Control antigen coated at 1% in PBS (pH 7.4); also called negative control antigen
Experimental: (§1) Selected single-chain phage antibodies that were obtained in the screens described above were validated in ELISA for specific enterococcal binding activity, i.e. binding to one or more enterococcal strains prepared as described supra. 2.5×10⁸ bacteria were coated overnight at 4° C. to Maxisorp™ ELISA plates in 50 μl 50 mM carbonate buffer, pH 9.6. As negative controls, the complex antigens 2% ELK and 1% BSA both in PBS (pH 7.4) were coated. Wells were washed in PBS containing 0.1% (v/v) Tween-20 and blocked with 300 μl PBS containing 2% ELK for at least 1 hour at room temperature. The selected single-chain phage antibodies were incubated for 15 minutes in an equal volume of PBS containing 2% ELK to obtain blocked phage antibodies. The plates were emptied and the blocked single-chain phage antibodies were added to the wells. Incubation was allowed to proceed for one hour at room temperature, the plates were washed in PBS containing 0.1% (v/v) Tween-20 and bound phage antibodies were detected using an anti-M13 antibody conjugated to peroxidase. Absorbance at 492 nm was measured using a spectrophotometer. As a control, the procedure was performed simultaneously without single-chain phage antibody and with a negative control single-chain phage antibody directed against West Nile virus envelope protein (SC04-374).

[2] = target: T1, bovine serum albumin (BSA); assay: phage ELISA, BSA coated
Experimental: as §1

T1 sequence (P02769 25-607 limits assumed): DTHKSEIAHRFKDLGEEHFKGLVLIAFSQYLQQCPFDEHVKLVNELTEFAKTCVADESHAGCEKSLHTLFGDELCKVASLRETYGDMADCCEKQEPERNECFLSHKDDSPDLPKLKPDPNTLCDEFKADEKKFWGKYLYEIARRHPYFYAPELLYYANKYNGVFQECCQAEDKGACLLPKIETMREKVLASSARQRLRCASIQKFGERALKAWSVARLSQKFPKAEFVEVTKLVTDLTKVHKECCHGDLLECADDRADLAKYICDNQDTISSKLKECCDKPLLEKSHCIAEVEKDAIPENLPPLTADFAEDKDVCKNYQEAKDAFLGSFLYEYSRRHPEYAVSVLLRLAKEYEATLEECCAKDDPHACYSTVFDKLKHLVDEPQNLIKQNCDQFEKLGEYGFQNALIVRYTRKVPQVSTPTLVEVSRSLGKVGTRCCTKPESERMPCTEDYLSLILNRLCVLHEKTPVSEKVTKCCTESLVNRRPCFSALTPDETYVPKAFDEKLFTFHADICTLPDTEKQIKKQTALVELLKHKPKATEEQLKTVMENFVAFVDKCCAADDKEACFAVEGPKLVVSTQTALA

Binder	OD492 nm [1] [OD492 nm]	binding result [2]
SC06-429 (scFv, Vl 138-249); also called single-chain phage antibody SC06-429) scFv: QVQLVQSGAEVKNPGESLKISCKGSGYTFTSYWIGWVRQMPGKGLEWMGSIYPGDSDTRYSPSFQGQVTISVDKSISTAYLQWSSLKASDTAMYYCARQYRAGSTTRFDPWGQGTLVTVSSGTGGSGGTGSGTGGSTDVVMTQSPLSLPVTPGEPASISCRSSQSLRHRNGNNYLDWYLQKPGQSPQLLIYLGSNRASGVPDRFSGSGSGTDFTLKISRVEAEDVGIYYCMQALQTPLTFGGGTKVEIK	0.068	no binding
SC06-432 (scFv, Vl 137-246); also called single-chain phage antibody SC06-432) scFv: QLQLQESGPGLVKPSQTLSLTCTVSGGSISSGGYYWSWIRQHPGKGLEWIGYIYYSGSTYYNPSLKSRVTISVDTSKNQFSLKLSSVTAADTAVYYCARERILDRMNDYWGQGTLVTVSSGTGGSGGTGSGTGGSTQSVVTQPPSVSGAPGQRVTISCTGSSSNIGAGYDVHWYQQLPGTAPKLLIYGNSNRPSGVPDRFSGSKSGTSASLAITGLQAEDEADYYCQSSDSSLNILFGGGTKLTVL	0.059	no binding
SC05-179 (scFv, Vl 134-244); also called single-chain phage antibody SC05-179) scFv: EVQLVESGGGLVKPGGSLGLSCAASGFFFSDYSMSWIRQAPGKGLEWLSNISGSGHSTKYAESMRGRITISRDNAKKSLSLQLNSLRAEDTAVYFCVRGGGYRMDVWGQGTTVTVSSGTGGSGGTGSGTGGSTQSALTQPRSVPGSPGQSVTISCTGTSSDVGGYNYVSWYQQHPGKAPKLMIYDVSKRPSGVPDRFSGSKSGNTASLTVSGLQAEDEADYYCSSYAGSNNFVVFGGGTKLTVL	0.045	no binding
SC05-187 (scFv, Vl 138-246); also called single-chain phage antibody SC05-187) scFv: EVQLVQSGAEVKKPGESLKISCKGSGYSFTKYWIGWVRQMPGKGLEWMGIIYPGDSDTRYSPSFQGQVTISADKSISTAYLQWSSLKASDTAMYYCARGSGIATGNSFDSWGQGTLVTVSSGTGGSGGTGSGTGGSTQTVVTQEPSLTVSPGGTVTLTCASSTGAVTSGYYPNWFQQKPGQAPRALIYSTSKKHSWTPARFSGSLLGGRAALTLSGAQPEDEADYYCLLSYGGARVFGGGTKLTVL	0.055	no binding
SC05-159 (scFv, Vl 140-249); also called single-chain phage antibody SC05-159) scFv: QVQLVQSGAEVKKPGATVKISCKVSGYTFTDYYMHWVQQAPGKGLEWMGLVDPEDGETIYAEKFQGRVTITADTSTDTAYMELSSLRSDDTAVYYCARAEVMTTINNWYFDLWGRGTLVTVSSGTGGSGGTGSGTGGSTSYVLTQPPSASGTPGQRVTISCSGSSSNIGSNNVSWYQQLPGTAPKLLIYSNNQRPSGVPDRFSGSKSGTSASLAISGLQSEDEADYYCAAWDDSLNGWVFGGGTKLTVL	0.06	no binding
SC06-049 (scFv, Vl 137-246); also called single-chain phage antibody SC06-049) scFv: QVQLVQSGAEVKKPGESLKISCKGSGYSFTSYWIGWVRQMPGKGLEWMGIIYPGDSDTRYSPSFQGQVTISADKSIGTAYLQWSSLKASDTAMYYCARLFRVRGGHFDSWGQGTLVTVSSGTGGSGGTGSGTGGSTQSALTQPASVSGSPGQSITISCTGTNSDVGGYNYVSWYQQHPGKAPKLLIYDVTNRPSGVSNRFSASKSGNTASLTISGLQAEDEADYYCSSFTSSSTRVFGGGTKLTVL	0.042	no binding
SC06-043 (scFv, Vl 140-249); also called single-chain phage antibody SC06-043) scFv: EVQLVESGAEVKKPGESLKISCKGSGYSFTSYWIGWVRQMPGKGLEWMGIIYPGDSDTRYSPSFQGQVTISADKSISTAYLQWSSLKASDTAMYYCARRYCSGGTCSDGFDIWGQGTMVTVSSGTGGSGGTGSGTGGSTQSALTQPPSASGSPGQSVTISCTGTSSDVGGYNYVSWYQQHPGKAPKLMIYEVSKRPSGVPDRFSGSKSGNTASLTVSGLQAEDEADYYCSSYAGSNNLVFGGGTKLTVL	0.045	no binding
SC06-016 (scFv, Vl 135-241); also called single-chain phage antibody SC06-016) scFv: QVQLVQSGPEVKKPGASVTVSCKASGYSFSSYGISWVRQAPGQGLEWMGRIIPVGGNTLYSQMFQGRVTMTSDTSTSTVYLELSSLRSEDTAVYFCARDGGRWQFDYWGQGTLVTVSSGTGGSGGTGSGTGGSTDIQLTQSPSSVSASVGDRVTITCRASQGISNWLAWYQQKPGKAPELLIYAASSLQSGVPPRFSGSASGTDFTLTISSLQPEDFATYYCQQSKNFPYTFGQGTKVEIK	0.044	no binding
SC06-415 (scFv, Vl 133-242); also called single-chain phage antibody SC06-415) scFv: EVQLVESGGGLVQPGRSLRLSCAASGFTFDDYAMHWVRQAPGKGLEWVSGISWNSGSIGYADSVKGRFTISRDNAKNSLYLQMNSLRAEDSAVYYCARGGQRFDFWGQGTLVTVSSGTGGSGGTGSGTGGSTQSALTQPPSASGSPGQSVTISCTGTSSDVGGYNYVSWYQQLPGKAPKLLIYDVNNRPSGVSNRFSGSKSGNTASLTISGLQAEDEAEYYCGSSVGSRLRIFGGGTKLTVL	0.044	no binding
